Data as given in publication PMC10692737.

Biological target: Rabbit skeletal muscle actin (filaments with free barbed ends) (rabbit) (UniProt P68135)

Sequence of C-terminal half of mouse CAP2, C-CAP2 (219–476)-6His (Q9CYT6 219-476): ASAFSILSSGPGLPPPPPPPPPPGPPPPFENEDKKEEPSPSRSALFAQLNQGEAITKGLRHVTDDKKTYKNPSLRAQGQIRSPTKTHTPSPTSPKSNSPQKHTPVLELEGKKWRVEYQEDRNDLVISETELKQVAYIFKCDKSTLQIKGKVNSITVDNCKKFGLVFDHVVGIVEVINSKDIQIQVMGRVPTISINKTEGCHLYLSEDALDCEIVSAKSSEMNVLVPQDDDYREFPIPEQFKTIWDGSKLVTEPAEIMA

barbed end depolymerization rate in mf-TIRF, no actin monomers, 1 μM C-CAP2 (2.5- to 3-fold faster than control) (subunits s^−1): 10.8
Substance: C-terminal half of mouse CAP2, C-CAP2 (219–476)-6His (from UniProt Q9CYT6 219-476) (domain or fragment)
